This series in a line: yeast display, Sf9 membrane polyspecificity reagent, FACS + sequencing; frameworks hold sequencing errors. An outline of the steps:
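Polyreactivity labels are assigned by the sorting gate from which each nanobody was recovered. The gates were low and high (top ~1%), set on anti-HA fluorescence for expression and streptavidin fluorescence for reagent binding. Before sorting, galactose-induced (36–48 hours) yeast display cells were stained for 1 hour at 4 °C with 10% biotinylated, detergent-solubilized Sf9 membrane reagent.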
In the case of “QVQLVESGGGLVQAGGSLRLSCAASGRIFYYNVMGWYRQAPGKERELVAAITWSGGSTYYADSVKGRFTISRDNAKNTVYLQMNSLKPEDTAVYYCAAKFSKWTLKKYYYWGQGTQVTVSS”, the “polyreactivity (PSR sort gate)” value is “high polyreactivity”.

Take “QVQLVESGGGLVQAGGRLRLSCAASGYTFTHYAMGLYRQAPVKESELVASIRNSGSRTYYADSVKGRFTISPDNAKNTVYLQLNSLKPEDTAVYYCAAKTTTPYRYIYYYWGQGTQVTVSS”: the “polyreactivity (PSR sort gate)” value is “high polyreactivity”.

Turning to “QVQLVESGGGLVQAGGSLRLSCAASGFTFQNYVMGWYRQAPGKERELVAAINSGGRTYYADSVKGRFTISRDNAKNTVYLQMNSLKPEDTAVYYCNAVQPATYKYRSHVIEYDYWGQGTQVTVSS”, the “polyreactivity (PSR sort gate)” value was “high polyreactivity”.

For the sequence “QVQLVESGGGLVQAGGSLRLSCAASGITTTVYAMGWYRQAPGKERELVAGISWSTSSTYYADSVKGRFTISRDNAKNTVYLQMNSLKPEDNAVYYCAVYTITGRVLRQGPLYRHYYWGQGTQVTVSS”, the “polyreactivity (PSR sort gate)” value is “high polyreactivity”.

“QVQPVESGGGLVQAGGSLRLSCAASGIIFISYDMGWYRQAPGKERELVARINWDGGSTYYADSVKGRFTISRDNAKNTVYLQMNSLKPEDTAVYYCAAGFVGTNYPLQGFSYEYWGQGTQVTVSS”: the “polyreactivity (PSR sort gate)” value is on record as “low polyreactivity”.

In the case of “QVQLVESGGGLVQAGCSLRLSCAASGSTFKRYAMGWYRQAPGKERELVASISSGGSTNYADSVKGRFTISRDNAKNTVYLQMNSLKPEDTAVYYCATRGHYRQTINYWGQGTQVSVSS”, the “polyreactivity (PSR sort gate)” value was “high polyreactivity”.

Take “QVQLVESAGGLVQAGGSLRLSCAPSGSILASNAMGCYRQAPGKDRELVSAITTSGGSTYYADYVKGRFTISLDNAKNTVYLQMNSLKPEDTAVYYCNAEYSRGRWLRYGYWGQGTQVTVSS”: the “polyreactivity (PSR sort gate)” value was “high polyreactivity”.

“QVQLVESGRGLVQAGGSLRLSCAASGIIFAQNAMGWYRQAPGKEMVLVAAISLDGGSTNYADSVKGRFTISRDNAKNTVYLQMNSLKPEDTAVYYCAADDGWIEPVYGYYEHEYWGQGTQVTVSS”: the “polyreactivity (PSR sort gate)” value is recorded as “low polyreactivity”.

For “QVQLVESGGGLVQAGGSLRLSCAASGFIFGWYAMGWYRQAPGKERELVAVIRSGGRTNYADSVKGRFTISRDNAKNTVYLQMNSLKPEDTAVYDCNAVGGRGYGGGFWGQGTQVTVSS”, the “polyreactivity (PSR sort gate)” value was “high polyreactivity”.

For the sequence “QVQLVESGGGLVQAGGSLRLSCAASGYIFGVYAMGWYRQAPGKERELVAAISYGVGSTYYADSVKVRFTISRDNAKNTVYFQMNSLKPEDTAVYYCAADVFFYVYEAYLLYYWGQGSQVTVSS”, the “polyreactivity (PSR sort gate)” value is “low polyreactivity”.

For the sequence “QVQLVESGGGLVQAGGRLRLSCAASGIIFRGNPMGRYRQAPGKERELVAAIARRGGRTYYADSVKGRFTISRDNAKNTVYLQMNCLKAEDTAVYFCAAGELGDYWGQGTQVTVSS”, the “polyreactivity (PSR sort gate)” value is recorded as “high polyreactivity”.

For “QVQLVESGGGLVQAGGSLRLSCAASGFIFGYYAMGWYRQAPGKERELVAAISWNGGSTYYADSVKGRFTISRDNAKNTVYLQMNSLKPEDTAVYYCAADGYETYYDYDYWGQGTQVTVSS”, the “polyreactivity (PSR sort gate)” value was “high polyreactivity”.

Take “QVQLVESGGGLVQAGGSLRVSCAASGLILAYYDMGWYRQAPGKERELVASITGSGGDTYYADSVKGRFTISRDNAKNTVYLQMNSLKPEDTAVYYCAAEYRNVYWIFGVDYWGQGTQVTVSS”: the “polyreactivity (PSR sort gate)” value is “low polyreactivity”.

As for “QVQLVESGGGLVQAGGSLRLSCAASGSTFWYYTMGWSRQAPGKERELVAGITSGGSTYYADSVKGRFTISRDNAKNTVYLQMNSLKPEDTAVYYCAKRYYGRGYYYWGQGTQVTVSS”, the “polyreactivity (PSR sort gate)” value was “high polyreactivity”.

Take “QVQLVESGGGLVQAGGSLRLSCAASGSISGWYAMGWYRQAPGKERELVADISSIAGSTYYADSVKGRFTISRDNAKNTVYLQMNSLKPEDTAVYYCAADDAAWPYSWWGFDYWGQGTQVTVSS”: the “polyreactivity (PSR sort gate)” value is reported as “low polyreactivity”.

“QVQLVESGGGLVQAGGSLRLSCAASGRTFYIYAMGWYRQAPGKERELVAGITYSGGRTYYADSVKGRFTISRDNAKNTVYLQMNSLKPEDTAVYYCAARPYLTTEGPYNYWGQGTQVTVSS”: the “polyreactivity (PSR sort gate)” value was “low polyreactivity”.

In the case of “QVQLVESGGGLVQAGGSLRLSCAASGSIFRYYAMGWYRQAPGKERELVAAISSSGGSTYYADSVKGRFTISRDNAKNTVYLQMNSLKPEDTAGYYCAAVYTQSNSATMYYWGQGTQVTVSS”, the “polyreactivity (PSR sort gate)” value is reported as “high polyreactivity”.

With “QVHLVESGGGLVQAGGSLRLSCAASGSTIDRYAMGWYRQAPGKERELVASISKRGGSTYYADSVKGRFTISRDNAKNTVYLQMNSLKPEDTAVYYCAAKWASQYDYWGQGTQVTVSS”, the “polyreactivity (PSR sort gate)” value is listed as “high polyreactivity”.

With “QVQLVESGGGLVQAGGSLRLSCAASGNIFDPYAMGWYIQAPGKERELVAVINASGDSTYYADSVKGRFTISRDNAKNTVYLQMNSLKPEDTAVYYCAADHRGEYDYWGQGTQVTVSS”, the “polyreactivity (PSR sort gate)” value is given as “low polyreactivity”.

Consider “QVQLVESGGGLVQAGGSLRLSCAASGFIFEHYAMGWYRQAPGKEREMVARISWRGGSTYYADSVKGRFTISRDNAKNTVYLQMNSLKPEDTAVYYCNAQEVVYFGYYPSDYWGQGTQVTVSS”, for which the “polyreactivity (PSR sort gate)” value is recorded as “low polyreactivity”.

As for “QVQLVESGGGLVQAGGSLRLSCAASGIIIYYNTMGWYRQAPGKEREFVDAISNSGGRTYYADSVKGRFTISRDNAKNTVYLQMNSLKPEDTADYYCAATYRQYSRSPWYYYCGQGTQVTVSS”, the “polyreactivity (PSR sort gate)” value was “high polyreactivity”.

As for “QVQLVESGGGLVQAGGSLRLSCAASGRIFGANAMGWYRQAPGKERELVAVITGGGGTYYADSVKGRFTISRDNSKNTVYLQINSLKPEDTAVYYCDWPRYYYTYPSHPMDYWGQGTQVTVSS”, the “polyreactivity (PSR sort gate)” value is given as “low polyreactivity”.

As for “QVQLVESGGGLVQAGGSLRLSCAASGNTFWRYAMGWYRQAPGKERELVAAITYTSGSTYYADSVKGRFTISRDNAKNTVYLQMNSLKPEDTAVYYCAAESVYGSGYVFRYYYWGQGTQVSVSS”, the “polyreactivity (PSR sort gate)” value was “high polyreactivity”.

Regarding “QVQLVESGGGLVQAGGSLRLSCAASGLTFSVYAMGWYRQAPGKDRELVAAISGSGGSTYYADSVKGRFTISRDNAKNTVYLQMNSLKPEDTAVYYCAADGRYFRAVFRLYDYWGQGTQVTVSS”, the “polyreactivity (PSR sort gate)” value is recorded as “low polyreactivity”.

With “QVQLEESGGGLVQAGGSLRLSCAASGGTFAQYVMGWYRQAPGKERELVAAISRTGGRTYYADSVKGRFTISRDNAKNTVYLQMNSLKPEDTAVYYCARVYTSYGTPWTNYDYWGQGTQVTVSS”, the “polyreactivity (PSR sort gate)” value is given as “high polyreactivity”.

Regarding “QVQLVESGGGLVQAGGSLRLSCAASGRTFYFYTMGWYRQAPGKERELVAAITSGGSTNYADSVKGRFTISRDNAKNTVYLQMNSLKPEDTAVYYCAAIYYRVYGYGLRMYYWGQGTQVTVSS”, the “polyreactivity (PSR sort gate)” value is “high polyreactivity”.

Consider “QVQLVESGGGLVQAGGSLRLSCAASGSTIADNAMGWYRQAPGKERELVAAITRSGVRTYYADSVKGRFTISRDTAKNTVYLQMNSLKPEDTAVYYCAKRTYPSRIYDYWGQGTQVTVSS”, for which the “polyreactivity (PSR sort gate)” value is “high polyreactivity”.

Consider “QVQHVESRGGLVQAGGSLRLSCADSGSIFRAYAKGWYIQAPGKERELVADISRSGGSTYYADSVKGRFTISRDNANNTVYLQMNRLNPEDTAVYYCAAVFYLYSNLYGEYEYWGQGTQVTLSS”, for which the “polyreactivity (PSR sort gate)” value is listed as “low polyreactivity”.

Turning to “QVQLVESGGGLVQAGGSLRVSCAASGRIFPFYAMGWYRQAAGKERELVAAISWNGGSTFYADSVKGRFTSSRDNANNTVYLQMHRLKPEDNAVYYCNADFRPAYTYDYWGQGTQVTVSS”, the “polyreactivity (PSR sort gate)” value was “low polyreactivity”.

Take “QVQLVESGGGLVQAGGSLRLSCAASGRIFHGNAMGWYRPAPGKERELVAAITSGGRTFYADSVKGRFTISRDNAKNTVYLQMNRLKPEDTAVYYCNAPSIAGYAEYNSHDYWGQGTQVTVSS”: the “polyreactivity (PSR sort gate)” value is listed as “high polyreactivity”.

With “QVQIVESGGGLVQAGGSLRLSCAAYGRTFSYYTMGWYRQAPGKERELVARISNRGTNTYYADSEKGRFTISRDNAKNTVYLQMNSLKPEDPAVYYCAKYYSTSIVGYDSWGQGTQVTVSS”, the “polyreactivity (PSR sort gate)” value is recorded as “low polyreactivity”.

“QVQLVESGGGLVKAGGSLRLSFAASGSIFEPYVMGWYRQAPGKQRELVAAISESGDTTYYADSVKGRFTISRDNAKTTVYLKMNSLKPEDTAVYDCNAEDPSIYGWWRVGEYDYWGQGTQVTVSS”: the “polyreactivity (PSR sort gate)” value is reported as “low polyreactivity”.

For “QVQLVESGGGLVQAGGRLRLSCAASLYIYGGYGMGWYRKAPGKERELVAVITSSVSTDYADSVKGSFTISRDNAKNTVYLQMKSLKPEDTAVYYSSADFLWYIYNIGTSLEFEYWGQGTQVTVSS”, the “polyreactivity (PSR sort gate)” value was “low polyreactivity”.

For the sequence “QVQLVESGAGLVQAGGSLRLSCASSGTIFWGYAMGWYRQAPGKERELVAAITDSGGRTYYADSVKGRFTISRDNAKNTVYLQMNCLKPEDTAVYYCAADYYSQYYYYAVPDRDYWGQGTQVTVSS”, the “polyreactivity (PSR sort gate)” value is recorded as “low polyreactivity”.

With “RVQLPESGGGLVQAGGSLRLTCAASGTIFIRGDMGWYRQSPGKEREFVATIDTGSNTYYADSEKGRFTISRDNAKNAVYLQMNCLKPGDTAVYYCVVDYQLSGRLRYWGQGTQVTLSS”, the “polyreactivity (PSR sort gate)” value is reported as “low polyreactivity”.

Turning to “QVQLVESGGGLVQAGGSLRLSCAASGSTFFIYAMGWYRQAPGKERELVAAITWRGGTTYYADSVKGRFTISRDNAKNTVYLQMNSLKPEDTAVYYCNADPVDYANIVYYYDYNYWGQGTQVTVSS”, the “polyreactivity (PSR sort gate)” value is reported as “low polyreactivity”.

As to “QVQLVESGGGLVQAGGSLRLSCAASGFILKYYAMGWYRQAPGKERELVAAISWSGGSTYYADSVKGRFTISRDNAKNTVYLQMNSLKPEVTAVYYCNAYYVYNSLGYWGQGTQVTVSS”, the “polyreactivity (PSR sort gate)” value was “high polyreactivity”.

Take “QVQLVESGGGLVQAGGSLRLSCAASGRIFGSNAMGWYRQAPGKERELVAAISWRGASTYYADSVKGRFTISRDNAKNTVYLQMNSLIPEDTAVYYCFLRGRATQWDFGYWGQGTQVTVSS”: the “polyreactivity (PSR sort gate)” value is listed as “high polyreactivity”.

With “QVELVESGGGLVQPGGSLRLSCAASGRTLSRYTMGWYRQAPGKERELVAAISTSGSTYYADSVKGRFTISRDNAKNTVYLQMNSLKPEDTAVYYCAADRFGIGGIRGNDYWGQGTQVTVSS”, the “polyreactivity (PSR sort gate)” value was “high polyreactivity”.

On to “QVQLVESGGGLVKAGGSLRLSCAASGIIFDYYAMGWYRQAPGKERELVAAISWDGGRTYYADSVKGRFTISRDNAKNTVYLQMNSLKPEDTAVYYCNKDYWYGYSDFDYWGQGTQVTVSS”, for which the “polyreactivity (PSR sort gate)” value is given as “low polyreactivity”.

The values are drawn from the nanobody polyreactivity screen of Harvey et al. (2022).
